Results reported in the nanobody polyreactivity screen of Harvey et al. (2022).

Assay: yeast display, Sf9 membrane polyspecificity reagent, FACS + sequencing; frameworks hold sequencing errors
Method in brief: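 After 36–48 hours of galactose induction, yeast (Saccharomyces cerevisiae BJ5465) displaying a synthetic nanobody library were stained at 4 °C for 1 hour with 10% biotinylated, detergent-solubilized Sf9 membrane reagent. Streptavidin microbeads enriched the stained cells before FACS sorting into low and high (top ~1%) gates on anti-HA and streptavidin fluorescence. Each clone's polyreactivity label reflects its gate of origin.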

Sequence | polyreactivity (PSR sort gate)
QVQLVESGGGLVQAGGSLRLSCAASGRTFKYNAMGWYRQAPGKERELVAVISYDGSTYYADSVKGRFTISRDNAKNTVYLQMNSLKPEDTAVYYCAARYLDVRPYYYWGQGTQVTVSS | high polyreactivity
QVQLVESGGGLVQAGGSLRLSCAASGRIFSIYAMGWYRQAPGKERDMVAASSFRGTSTYADSVKGRFTISRDNAKNTVYLQMNWLKPEDTAVYYCAVTGFDVLWPSLGGELDYWGQGTQVTVSS | low polyreactivity
QVQLVESGGGLVQAGGSLRLICAASGRIFPSNAMGGSIQAPGKERELVAAINTGGSTYYADSVKGRFTISRDNAKNTVYLQMNSQKPEDTAVYYCAAARRYYYYWGQGTQVTVSS | high polyreactivity
QVQLVESGGGLVQAGGSLRLSCAASGIIFGGYAMGWYRQAPGKERELVAAIDSSGSSTYYADSVKGRFTISRDNAKNTVYLQMNSLKPEDTAVYYCNAASSGHSGRLTSIINDYWGQGTQVTVSS | high polyreactivity
QVQLVESGGGLVQAGGSLRLSCAASGFIFSQYAMGWYRQAPGTERELVAVISKSSGSTYYADSVKGRFTISCDNAKNTVYLQMNSLKPEDTAVYYCNRRYYYRTYDYWGQGTQVTVSS | high polyreactivity
QVQLVESGGGLVQAGGSLRLSCAASGSIFASYAMGWYRQAPGKERELVATITQSGGRTYYADSVKGRFTISRDNAKNTVYLQMNSLKPEDTAVYYCARRYWGGGYRMGYWGQGTQVTVSS | high polyreactivity
QVQLVESGGGLVQAGGSLRLSCAASGFTTSQYAMGWYRQAPGKERDLVAAITSSGSSTYYADSVKGRFTISRDNAKNTVYLQMNSLKPEDTAVYYFNTDAYHRYPGSVWYYYWGQGTQVTVSS | high polyreactivity
QVQLVESGGGLVQAGGSLRLSCPASGSTFRYYAMGWYRQAPGKERELVAAISYRGGSTKYADSVKGRFTISRDNAKNTVYLQMNSLKPEDTAVYYCNTAPWWRTSSDYEYWGQGTQVTVSS | high polyreactivity
QVQLVESGGGLVQAGGSLRLSCAASGSIFKYYAMGWYRQAPGKERELVAAISVRGSRTYYADSVKGRFTISRDNAKNTVYLQMNSLKPEDTAVYYCAADGGYIPPYGYDYWGQGTQVTVSS | high polyreactivity
QVQLVESGGGLVQAGGSLRLSCAASGFIFAVYGMGWYTQAPGKQRELVAAISTGDSTKYADSVKGRFTISRDNAKNTVYLQMNSLNPEDTAVYYCAADGPYEGYDYWGQGTQVTVSS | high polyreactivity
QVQLVESGGGLVQAGGSLRLSCAASGRTFNVNVMGWYRQAPGKERELVAAIRYTGGSTYADSVKGRFTISRDNAKNTVYLQMNSLKPEDTAVYYCNADTFFPFDHGMDYWGQGTQVTVSS | low polyreactivity
QVQLVESGGGLVQAGGSLRLSCAASGRIFKYYAMGWYRQAPWKERELVDTIRRSGGSTYYADSVKGRFTISRDNAKNTVYLQMNSLKPEDTAVYYCNARYLFLQAWLRPYRSDYWGQVTQVTVSS | high polyreactivity
QVQLVESGGGLVQAGGSLRLSCAASGFIFRQNAMGWYRQAPGKEWELVARITWNGGRTYYADSVKGRFTISRDNAKNTVYLQMHSLKPEDTAVYYCNAVYWGYGKYDYWGQGTQVTVSS | high polyreactivity
QVQLVESGGGLVQAGGSLRLSCAASGSTFSPYAMGWYRQAPGKERELVANITISGGSTYYADSVKGRFTISRDNAKNTVYLQMNSLKPEDTAVYYCNADSLIRWLFTVVIFDYWGQGTQVTVSS | low polyreactivity
QVQLVESGGGLVQAGGSLRLSCAASGLTFRWYAMGWYRQAPGKERELVAAISSTGRTNYADSVKGRFTISRDNAKNTVYLQMNSLKPEDTAVYYCNKTQEFVHKYELDYWGQGTQVTVSS | low polyreactivity
QVQLVESGGGLVQAGGSLRLSCAASGSTFQSNAMGGYRQAPGKERELVAAISSSAGTTFYADSVKGRFTISRDNAKNTVYLQMNSLKPEDTAVYYCAAEYSRSYIEYDYWGQGTQVTVSS | low polyreactivity
QVQLVESGGGLVQAGGSLRLISAASGSTIIRNAMGWYRQAPGKERELVAAISTSGGRTHYADSVKGRFTISRDNAKTTVYLQMNSLKPEDTAVYDCAASNGYQAVTYDYWGQGTQVTVSS | high polyreactivity
QVQLVESGGGLVQAGGSLRLSCAASGRIFPAYAMGWYRQAPGKERELVASIRRGGITYADSVKGRFTISRDNAKNTVYLQMNSLKPEDTAVYYCARPQWRDWYGYWGQGTQVTVSS | low polyreactivity
QVQLVESGGGLVQAGGSLRLSCAASGSTFSDYTMGWYRQAPGKERELVAAITTIGGSTYYADSVKGRFTISRDNAKNTVYLQMNSLKPEDTAVYYCAASYYYPFEYYYWGQGTQVTVSS | low polyreactivity
QVQLVESGGGLVQAGGSLRLSCAASGRTFKTYSMGWYRQAPGKERELVASISGSGSSTYYADSVKGRFTISRDNAKNSVYLQMKSRKPEDTAVYYCNAARSQGYEYATYGYWGQGTQVTVSS | low polyreactivity
QVQLVESGGGLVQAGGSLRLSCAASGSIFYVNAMGWYRQAPGKERELVAAISVRGGRTYYADSVKGRFTISRDNAKNTVYLQMNSLKPEDTAVYYCAAKSVYKFGDDYWGQGTQVTVSS | high polyreactivity
QVQLVESGGGLVQAGGSLRLSCAASGSTIRWYAMGWDRQAPGKERELVASITWSGGGTYYADSVKGRFTISRDNAKNTVYLQMNSLKPEDTAVYYCNRRTWRYETRGDDYWGQGTQVTVSS | high polyreactivity

Sequence | polyreactivity (PSR sort gate)
QVQLVESGGGLVQAGGSLRLSCAASGIIFSQYAMGWYRQAPGKERELVASISRSGGITYYADSVKGRFTISRDNAKNTVYLQMNSLKPEDTAVYYCNAAKACREQWTSFDYWGQGTQVTVSS | high polyreactivity
QVQLQGSGGGLAQAGDSLRLSCAASGTIFSEYNNGLVSPGAGQRTRTCCRYWCWGNTYYADSAKRRFTTSRDNAKNTLYLQKNSLKPEDTAVYYCAFNRPYPSRHIYRGQGTQVTVSS | high polyreactivity
QVQLVESGGGLVQAGGSLRLSCAASGLIFYYYAMGWYRQAPGKERELVAAITTGGGTYYADSVKGRFTISRDNAKNTVYLQMNILKPEATAVFYCAVYYRSYWGYEYWGQGTQVTVSS | high polyreactivity
QVQLVESGGGLVQAGGSLRLSCAASGFIFVSYSLGWYRQAPGKERELVAAIDRIGGITYYADSVKGRFTISRDNSKNTVYLQMNSLKPEDTAVYYCAAAASYATVRVGREYYWGQGTHVTVSS | low polyreactivity
QVQLVESGGGLVQAGGSLRLSCAASGSTFPVYAMGWYRQAPGKERELVARISSGSSTNYADSVKGRFTNSRDKAKNTVYLQMNSLKPEDTAVSYCAAQTPRFVWQKGPLDSEEYWGQGTQVTVSS | high polyreactivity
QVQLVESGGGLVQAVGSLRLSCAPSGRTLNNYTMGWNRPAPGKERELVAAIRWSTGSTYYADSVKGRFTISRDNSKNTVYLQMNSLKPEDTAVYYCNAYRYQWAQSTEYDYWGQGTQVTVSS | high polyreactivity
QVQLVESGGGLLQAGGSLRLSCAASGYTFASNAMGWYRQAPGKERELVAAITRGGSTNYADSVKGRFTISRDNAKNTVYLQMNSLKPEDTAVYYCAAPRYRHTRKGGYWGQGTQLTVSS | low polyreactivity
QVQLVESGGGLVQAGGSLRLSCAASGRTFYVNAMGWSRHAPGIERELVAGISFSDGSTYYADSVKWRFTISRDNAKSTVYLQMNSLKPEDTAVYYCATVGALDIYYGYGYWGQGTQVTVSS | low polyreactivity
QVQLVESGGGLVQAGGSLRLSCAASGRTFWIYAMGWYRQAPGKERELVAAISRGGSTYADSVKGRFTISRDNAKNTVYLQMNSLKPEDTAVYYCAASTPQYQYYYWGQGTQVTVSS | high polyreactivity
QVQLVESGGGLVQAGGSLRLSCAASGSNLSAYAMGWYRQAPGKERELVAAISWSGGSTYYADSVKGRFTISRDNAKNTVYFQMNSLKPEDTAVYYCATVNKKWRRYDYWGQGSQVTVSS | high polyreactivity
QVQLVESGGGLVQAGGSLRLSCAASGSTFPSYAMGWYRQAPGKERELVAAITRSGGRTYYADSVKGRFTISRDNAKNTVYLQMNSLKPEDTAVYYCAADLGRNYDYWGQGTQVTVLS | low polyreactivity
QVQLVESGGGLVQAGGSLRLSCAASGRIFSRNAMGWYRQAPGKERELVAAITYSGGSTYYADSVKGRFTISRDNAKNTVYLQMNSLKPEDTAVYYCNADLYLQLPESYEYDYWGQGTQVTVSS | high polyreactivity
QVQLVESGGGLVQAGGSLRLSCAASGGTFRTYTMGWYRQAPGKERELVAAINFRGGSTYYADSVKGRFTISRDNAKNTVYLQMNSLKPEDTAVYYCATPLQQEGDWGQGTQVTVSS | high polyreactivity
QVQLVESGRGLVQAGGSLRLSCAASGITFNFYAKGWYRKAPGKERELVAAITQSGGSTYYADSVKGRFTISRDNAKNTVYLQMISLKPEDTAVYYWAAARTGHMYDLGQGTQVTVSS | high polyreactivity
QVQLVESGGGLVQAGGSLRLSCAASGSIFRFNAMGWYRQAPGKERELVAAITSRTYYADSVKGRFTISRDNAKNTVYLQMNSLKPEDTAVYYCAARVQSKYGYWGQGTQVTVSS | high polyreactivity
QVQLVESGGGLVQAGGSLRLSCAASGSTFETYAMGWYRQAPGKERELVAVITSDGSTNYADSVKGRFTISRDNAKNTVYLQMNSLKPEDTAGYYCNADYGFYVPAYPIYWIYEYWGQGTQVTVSS | low polyreactivity
QVQLVESGGGLVQAGGSLRLSCAASGFTFFHYAMGWYRQAPGKERELVAAINTRGSRTYYADSVKGRFTISRDNAKNTVYLQMNSLKPEDNAVYYCAAEDYWYDFDYWGQGTQVTVSS | high polyreactivity
QVQLVESGGGLVQAGGSLRLSCAASGRIFVVYAMGWSRQAPGKERELVAAIRSGGSTNYADSVKGRFTISRDNAKNTVYFQLNSLKPEDTAVYNCAARKWHSAYDYWGQGTQVTVSS | high polyreactivity
QVQLVESGGGLVQAGGSLRLSCAASGFIFHVYAMGWYRQAPGKERELVARITSSGGNTFYADSVKGRFTISRDNAKNTVYLQMNSLKPEDTAVYYCAKRYRYSVGWPVKNSAFGYWGQGTQVTVSS | low polyreactivity
QVQLVESGGGLVQAGGSLRLSCAASGFIFDQNAMGWYRQAPGKERELVAAISKRGGSTYYADSVKGRFTISRDNAKNTVYLQMNSLKPEDTAVYYCATRSWGPYYYGYNHWGQGTQETVSS | high polyreactivity
QVQLVESGGGLVQAGGSLRLSCAASGRTFWFNDMGWYRQAPGKERELVAAISDTDGSTYYADSVKGLFTISRDNAKNTVYLQMNSLKPEDTAVYYCAAEAYYGYLYAYDYWGQGTQVTVSS | low polyreactivity
